Measured values as given in patent publication US20170226161A1 (GlaxoSmithKline, published 2017).
Several values for one entry are separate records, joined by “and”; a condition that tells them apart may be missing. Identical values can stand only once.

T1: factor H comprising only domains 6-7 (UniProt P08603 321-443)
T1 sequence: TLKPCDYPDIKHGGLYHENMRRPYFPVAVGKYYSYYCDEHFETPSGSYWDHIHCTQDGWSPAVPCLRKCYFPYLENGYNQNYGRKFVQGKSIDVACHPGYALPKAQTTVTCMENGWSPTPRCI

B1: 231 S fusion polypeptide (v2-v3-v1 fHbp, stabilised) (other)
chain: MGPDSDRLQQRRVAADIGAGLADALTAPLDHKDKSLQSLTLDQVVRKNEKLKLAAQGAEKTYGNGDSLNTGKLKNDKVSRFDFIRQIEVDGQLITLESGEFQIYKQDHSAVVALQIEKINNPDKIDSLINQRSFRVSGLGGEHTAFNQLPDGKAEYHGKAFSSDDAGGKLTYTIDFAAKQGHGKIEHLKTPEQNVELAAAELKADEKSHAVILGDTRYGSEEKGTYHLALFGDRAQEIAGSATVKIGEKVHEIGIAGKQGSGGGGVAADIGTGLADALTAPLDHKDKGLKSLTLEDVIPQNGTLTLSAQGAEKTFKAGDKDNSLNTGKLKNDKISRFDFVQKIEVDGQTITLASGEFQIYKQNHSAVVALQIEKINNPDKTDSLINQRSFRVSGLGGEHTAFNQLPGGKAEYHGKAFSSDDPNGRLHYSIDFTKKQGYGRIEHLKTLEQNVELAAAELKADEKSHAVILGDTRYGSEEKGTYHLALFGDRAQEIAGSATVKIGEKVHEIGIAGKQGSGGGGVAADIGAGLADALTAPLDHKDKGLQSLTLDQSVSKNEKLKLAAQGAEKTYGNGDSLNTGKLKNDKVSRFDFIRQIEVDGQLITLESGEFQVYKQSHSALTAFQTEQIQDSEHSGKMVAKRQFRIGDIAGEHTSFDKLPEGGRATYRGTAFGSDDAGGKLTYTIDFAAKQGNGKIEHLKSPELNVDLAAADIKPDGKRHAVISGSVLYNQAEKGSYSLGIFGGKAQEVAGSAEVKTVNGIRHIGLAAKQ
B2: v3 fHbp with S32V (SEQ ID NO: 17 numbering) (other)
chain: VAADIGTGLADALTAPLDHKDKGLKSLTLEDVIPQNGTLTLSAQGAEKTFKAGDKDNSLNTGKLKNDKISRFDFVQKIEVDGQTITLASGEFQIYKQNHSAVVALQIEKINNPDKTDSLINQRSFLVSGLGGEHTAFNQLPGGKAEYHGKAFSSDDPNGRLHYSIDFTKKQGYGRIEHLKTLEQNVELAAAELKADEKSHAVILGDTRYGSEEKGTYHLALFGDRAQEIAGSATVKIGEKVHEIGIAGKQ

How the values were obtained:
[1] = biological target: factor H full length (Calbiochem) (UniProt P08603 19-1231)
[2] = biological target: T1, factor H comprising only domains 6-7
[3] = biological target: T2, human factor H (fH), immobilised (human, UniProt P08603 19-1231); assay: SPR (FIG. 6)
T2 construct: also called human fH
T2 sequence (P08603 19-1231): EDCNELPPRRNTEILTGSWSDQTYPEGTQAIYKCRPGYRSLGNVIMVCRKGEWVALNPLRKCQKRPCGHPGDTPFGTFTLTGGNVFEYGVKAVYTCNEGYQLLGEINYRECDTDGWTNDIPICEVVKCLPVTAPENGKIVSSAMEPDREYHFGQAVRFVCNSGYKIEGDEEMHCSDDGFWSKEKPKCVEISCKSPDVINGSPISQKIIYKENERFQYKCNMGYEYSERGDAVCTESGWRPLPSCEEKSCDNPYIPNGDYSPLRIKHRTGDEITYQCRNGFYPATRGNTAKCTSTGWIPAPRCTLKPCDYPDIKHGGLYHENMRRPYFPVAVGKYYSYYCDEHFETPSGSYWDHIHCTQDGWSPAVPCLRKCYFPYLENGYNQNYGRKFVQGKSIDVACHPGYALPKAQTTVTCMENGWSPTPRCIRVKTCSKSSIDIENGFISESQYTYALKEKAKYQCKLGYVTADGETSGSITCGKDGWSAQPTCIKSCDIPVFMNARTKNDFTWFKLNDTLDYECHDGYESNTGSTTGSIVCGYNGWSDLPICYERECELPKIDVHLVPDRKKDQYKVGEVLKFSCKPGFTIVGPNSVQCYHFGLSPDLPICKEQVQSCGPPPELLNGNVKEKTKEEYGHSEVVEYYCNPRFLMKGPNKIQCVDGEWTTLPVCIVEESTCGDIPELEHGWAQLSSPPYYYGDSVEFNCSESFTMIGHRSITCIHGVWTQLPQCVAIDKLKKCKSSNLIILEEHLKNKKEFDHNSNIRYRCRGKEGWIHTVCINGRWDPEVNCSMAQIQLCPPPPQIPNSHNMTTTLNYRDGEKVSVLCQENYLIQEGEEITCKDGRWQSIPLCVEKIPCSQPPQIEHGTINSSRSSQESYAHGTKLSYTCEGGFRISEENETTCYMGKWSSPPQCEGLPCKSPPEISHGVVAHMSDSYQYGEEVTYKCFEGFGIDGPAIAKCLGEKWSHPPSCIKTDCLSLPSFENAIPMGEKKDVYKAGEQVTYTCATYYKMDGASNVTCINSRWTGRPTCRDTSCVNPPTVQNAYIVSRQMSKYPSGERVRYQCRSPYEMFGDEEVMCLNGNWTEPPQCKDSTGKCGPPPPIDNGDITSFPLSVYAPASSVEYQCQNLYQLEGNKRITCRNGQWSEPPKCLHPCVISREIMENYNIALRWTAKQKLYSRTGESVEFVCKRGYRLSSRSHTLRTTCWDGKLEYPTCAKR

Chain of factor H full length (Calbiochem) (P08603 19-1231): as above

| Binder | Kd [1] [nM] | Ration KD wt/x (residual binding) [1] | koff [1] [s⁻¹] | kon [1] [M⁻¹ s⁻¹] | Kd [2] | Ration KD wt/x (residual binding) [2] | koff [2] [s⁻¹] | kon [2] [M⁻¹ s⁻¹] | fold reduction of the SPR peak against wild-type v3 [3] [fold] |
| --- | --- | --- | --- | --- | --- | --- | --- | --- | --- |
| B1 | 3100 | 0.1 | 0.064 | 21000 | 158 nM and 280 nM | 0.076 | 0.11 | 710000 |  |
| B2 |  |  |  |  |  |  |  |  | ~2 |
